Experimental data from patent US10357539B2, “Use of peptides that block metadherin-SND1 interaction as treatment for cancer” (THE TRUSTEES OF PRINCETON UNIVERSITY, priority 2014, dated 2019).

T1: SND1 (Homo sapiens, UniProt Q7KZF4)
T1 construct: 15 μg of His-SND1 (16-339) was added to the resin; made in house; host or cells: E. coli DH5α
T1 sequence (Q7KZF4 16-339): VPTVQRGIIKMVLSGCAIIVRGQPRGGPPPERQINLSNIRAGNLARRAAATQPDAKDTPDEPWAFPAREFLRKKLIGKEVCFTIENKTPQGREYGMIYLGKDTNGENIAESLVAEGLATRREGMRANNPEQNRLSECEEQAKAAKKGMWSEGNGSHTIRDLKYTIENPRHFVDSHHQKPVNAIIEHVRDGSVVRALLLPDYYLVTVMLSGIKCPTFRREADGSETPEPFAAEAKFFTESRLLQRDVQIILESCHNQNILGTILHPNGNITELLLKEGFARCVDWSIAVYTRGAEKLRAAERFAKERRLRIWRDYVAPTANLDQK

T2: SND1 (Homo sapiens, UniProt Q7KZF4)
T2 construct: Full-length HA-tagged SND1 was co-expressed with full-length Myc-tagged wild-type (WT) or mutant MTDH in HEK293T cells; expressed in transfected cells; host or cells: HEK293T
T2 sequence (Q7KZF4 1-910): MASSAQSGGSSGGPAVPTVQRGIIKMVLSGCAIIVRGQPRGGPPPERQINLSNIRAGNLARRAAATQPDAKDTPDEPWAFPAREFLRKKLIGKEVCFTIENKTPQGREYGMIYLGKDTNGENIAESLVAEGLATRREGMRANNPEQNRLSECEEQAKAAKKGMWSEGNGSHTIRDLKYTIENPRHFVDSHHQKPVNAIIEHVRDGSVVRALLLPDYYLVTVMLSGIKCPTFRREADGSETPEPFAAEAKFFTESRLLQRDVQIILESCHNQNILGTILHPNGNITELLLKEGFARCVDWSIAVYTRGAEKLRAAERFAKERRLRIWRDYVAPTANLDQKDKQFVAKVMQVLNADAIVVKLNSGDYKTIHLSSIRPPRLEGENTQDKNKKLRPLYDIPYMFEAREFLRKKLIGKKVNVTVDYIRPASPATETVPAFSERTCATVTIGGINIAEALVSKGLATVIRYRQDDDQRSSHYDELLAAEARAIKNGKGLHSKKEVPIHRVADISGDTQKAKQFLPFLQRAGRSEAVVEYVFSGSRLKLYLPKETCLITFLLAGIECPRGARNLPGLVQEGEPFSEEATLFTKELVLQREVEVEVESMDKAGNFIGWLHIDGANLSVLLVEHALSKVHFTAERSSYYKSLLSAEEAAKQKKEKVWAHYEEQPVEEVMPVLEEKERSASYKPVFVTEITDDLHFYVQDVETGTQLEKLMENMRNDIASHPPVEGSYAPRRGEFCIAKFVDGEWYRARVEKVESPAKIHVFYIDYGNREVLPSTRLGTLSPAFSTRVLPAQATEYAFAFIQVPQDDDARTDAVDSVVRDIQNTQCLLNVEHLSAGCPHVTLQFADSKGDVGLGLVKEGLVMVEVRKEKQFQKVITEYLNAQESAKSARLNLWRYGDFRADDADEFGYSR


Key:
SND1 [1] = molecular target: T1, SND1; assay: GST-mediated pull-down of SND1 by GST-tagged MTDH fragments and mutants; format: binding; conditions: SND1 (16-339); GST-tagged MTDH (364-582)
Source text: (§1) FIGS. 7A-E represents determination of key regions and residues mediating the MTDH-SND1 interaction. (FIG. 7A) Schematics of MTDH fragments and mutants with indicated SND1-binding capability. + indicates binding and − indicates no binding based on results shown below. Two putative nuclear localization signals are residues 432-451 for NLS2 and residues 561-580 for NLS3. In the enlarged view of the minimal binding region 386-407, 9 residues were targeted for mutagenesis in the current study. […] (FIG. 7B) Pulldown of His6-SND1AC by GST-tagged MTDH fragments with indicated boundaries. The bound proteins were examined by SDS-PAGE and visualized by Coomassie blue staining. (FIG. 7C) Pulldown of His6-SND1ΔC by GST-tagged WT or triple mutant MTDH fragments (364-582). For (FIG. 7B) and (FIG. 7C), 1/10 of the His6-SND1ΔC input was shown, and GST alone was used as a negative control. Representative results of 3 independent experiments are shown. (FIG. 7D, FIG. 7E) Lysates from HEK293T cells expressing the indicated ectopic human SND1, AGO2 or MTDH were immunoprecipitated with anti-Myc and immunoblotted with the indicated antibodies.
(§2) (FIG. 22A) In vitro pull-down of SND1 (16-339) by GST-tagged MTDH (364-582) harboring WT or mutant sequence. The proteins bound to GS4B were examined on SDS-PAGE and visualized by Coomassie blue staining. (FIG. 22B) In vitro pull-down of WT and mutant SND1 (16-339) by GST-tagged MTDH (364-582). The bound proteins were examined as in (FIG. 22A). For both (FIG. 22A) and (FIG. 22B), experiments were repeated three times; representative results are shown. The normalized percentage of binding was averaged from three experiments; mean±SEM was shown below the data. (FIG. 22C) HEK293T cells were transfected with human HA-SND1, WT Myc-MTDH or Myc-MTDH with indicated single point mutation. Lysates were immunoprecipitated with anti-Myc antibody and immunoblotted with the indicated antibodies. (FIG. 22D) HEK293T cells were transfected with human Myc-MTDH, WT HA-SND1 or mutant HA-SND1 with indicated single point mutations or deletions. Lysates were immunoprecipitated with anti-Myc and immunoblotted with the indicated antibodies.
GST-Mediated Pull-Down Assay: ˜20 μg of GST-MTDH (different truncation forms and site mutants) was bound to 10 μl of glutathione resin via GST tag. The resin was washed with 200 μl assay buffer (25 mM Tris, PH8.0, 150 mM NaCl, 3 mM DTT) three times to remove the excess unbound protein. 15 μg of His-SND1 (16-339) was added to the resin in a 100 μl volume suspended in the assay buffer with 2 mg/ml of BSA. The mixture was washed with 200 μl assay buffer twice before examined by SDS-PAGE, and visualized by Coomassie blue staining. The experiments were repeated 3 times and the ratio of SND1 associated with GST-MTDH was analyzed by ImageJ.

SND1 [2] = molecular target: T2, SND1; assay: Co-immunoprecipitation of full-length Myc-MTDH (WT or mutant) and HA-SND1 in HEK293T cells; format: cell-based; conditions: HEK293T cell lysates, immunoprecipitation and immunoblot
Source text: as §1, §2
Immunoprecipitation and western blot For immunoprecipitation (IP) experiments, cultured cells were washed in cold PBS and lysed in lysis buffer (20 mM Tris pH 7.4, 0.15 M NaCl, 1 mM EDTA, 1 mM EGTA, 1% Tx-100, 0.0025 M Na2P2O7, 1 mM α-glycerolphosphate, 1 mM Na3VO4, and 1 mM NaF) with an EDTA-free protease inhibitor mixture (Roche Applied Science) and PMSF. Cell lysates were then incubated on ice for 10 min, centrifuged, and precleared by incubating with protein A/G beads (Santa Cruz Biotechnology) for 1 h at 4° C. For IP bead preparation, 30 μl of protein A/G beads were incubated with 5 μg of antibodies for 2 h at 4° C. IPs were carried out for overnight at 4° C., and beads were centrifuged, washed and subsequently boiled for 5 min in SDS protein loading buffer to elute bound protein. IP lysates were subjected to western blotting with indicated antibodies.
Immunoprecipitation and western blot: For in vivo immunoprecipitation (IP) experiments, cultured cells were washed in cold PBS and lysed in lysis buffer (20 mM Tris pH 7.4, 0.15 M NaCl, 1 mM EDTA, 1 mM EGTA, 1% Tx-100, 0.0025 M Na2P2O7, 1 mM β-glycerolphosphate, 1 mM Na3VO4, and 1 mM NaF) with an EDTA-free protease inhibitor mixture (Roche Applied Science) and PMSF. Cell lysates were then incubated on ice for 10 min, centrifuged, and precleared by incubating with protein A/G beads (Santa Cruz Biotechnology) for 1 h at 4° C. For IP bead preparation, 30 μl of protein A/G beads were incubated with 5 μg of antibodies for 2 h at 4° C. IPs were carried out for overnight at 4° C., and beads were centrifuged, washed and subsequently boiled for 5 min in SDS protein loading buffer to elute bound protein. IP lysates were subjected to western blotting with indicated antibodies.

Molecule | SND1-binding of MTDH (364-582) point mutants, in vitro (SND1 [1]) | interaction of full-length MTDH (WT or mutant) with HA-SND1 (SND1 [2])
N395A: MTDH mutant N395A (protein, left off: a dimerising Fc or GST) YQWDVSRNQPYIDDEWSGLNGLSSADPNSDWAAPAEEWGNWVDEERASLLKSQEPIPDDQKVSDDDKEKGEGALPTGKSKKKKKKKKKQGEDNSTAQDTEELEKEIREDLPVNTSKTRPKQEKAFSLKTISTSDPAEVLVKNSQPIKTLPPATSTEPSVILSKSDSDKSSSQVPPILQETDKSKSNTKQNSVPPSQTKSETSWESPKQIKKKKKARRET | barely had any effect | 
E400A: MTDH mutant E400A (protein, left off: a dimerising Fc or GST) YQWDVSRNQPYIDDEWSGLNGLSSADPNSDWNAPAEAWGNWVDEERASLLKSQEPIPDDQKVSDDDKEKGEGALPTGKSKKKKKKKKKQGEDNSTAQDTEELEKEIREDLPVNTSKTRPKQEKAFSLKTISTSDPAEVLVKNSQPIKTLPPATSTEPSVILSKSDSDKSSSQVPPILQETDKSKSNTKQNSVPPSQTKSETSWESPKQIKKKKKARRET | barely had any effect | 
N403A: MTDH mutant N403A (protein, left off: a dimerising Fc or GST) YQWDVSRNQPYIDDEWSGLNGLSSADPNSDWNAPAEEWGAWVDEERASLLKSQEPIPDDQKVSDDDKEKGEGALPTGKSKKKKKKKKKQGEDNSTAQDTEELEKEIREDLPVNTSKTRPKQEKAFSLKTISTSDPAEVLVKNSQPIKTLPPATSTEPSVILSKSDSDKSSSQVPPILQETDKSKSNTKQNSVPPSQTKSETSWESPKQIKKKKKARRET | barely had any effect | 
WT MTDH: full-length Myc-tagged wild-type human MTDH (protein, UniProt Q86UE4 1-582, looked up, full-length Myc tag) MAARSWQDELAQQAEEGSARLREMLSVGLGFLRTELGLDLGLEPKRYPGWVILVGTGALGLLLLFLLGYGWAAACAGARKKRRSPPRKREEAAAVPAAAPDDLALLKNLRSEEQKKKNRKKLSEKPKPNGRTVEVAEGEAVRTPQSVTAKQPPEIDKKNEKSKKNKKKSKSDAKAVQNSSRHDGKEVDEGAWETKISHREKRQQRKRDKVLTDSGSLDSTIPGIENTITVTTEQLTTASFPVGSKKNKGDSHLNVQVSNFKSGKGDSTLQVSSGLNENLTVNGGGWNEKSVKLSSQISAGEEKWNSVSPASAGKRKTEPSAWSQDTGDANTNGKDWGRSWSDRSIFSGIGSTAEPVSQSTTSDYQWDVSRNQPYIDDEWSGLNGLSSADPNSDWNAPAEEWGNWVDEERASLLKSQEPIPDDQKVSDDDKEKGEGALPTGKSKKKKKKKKKQGEDNSTAQDTEELEKEIREDLPVNTSKTRPKQEKAFSLKTISTSDPAEVLVKNSQPIKTLPPATSTEPSVILSKSDSDKSSSQVPPILQETDKSKSNTKQNSVPPSQTKSETSWESPKQIKKKKKARRET |  | pulled down
E400R: MTDH single point mutant E400R (protein, listed as Homo sapiens) MAARSWQDELAQQAEEGSARLREMLSVGLGFLRTELGLDLGLEPKRYPGWVILVGTGALGLLLLFLLGYGWAAACAGSRKKRRSPPRKREEAAAVPAAAPDDLALLKNLRSEEQKKKNRKKLSEKPKPNGRTVEVAEGEAVRTPQSVTAKQPPEIDKKNEKSKKNKKKSKSDAKAVQNSSRHDGKEVDEGAWETKISHREKRQQRKRDKVLTDSGSLDSTIPGIENTITVTTEQLTTASFPVGSKKNKGDSHLNVQVSNFKSGKGDSTLQVSSGLNENLTVNGGGWNEKSVKLSSQISAGEEKWNSVSPASAGKRKAEPSAWSQDTGDANTNGKDWGRSWSDRSIFSGIGSTAEPVSQSTTSDYQWDVSRNQPYIDDEWSGLNGLSSADPNSDWNAPAERWGNWVDEERASLLKSQEPIPDDQKVSDDDKEKGEGALPTGKSKKKKKKKKKQGEDNSTAQDTEELEKEIREDLPVNTSKTRPKQEKAFSLKTISTSDPAEVLVKNSQPIKTLPPATSTEPSVILSKSDSDKSSSQVPPILQETDKSKSNTKQNSVPPSQTKSETSWESPKQIKKKKKARRET | barely had any effect | 
